Target: T1, recombinant ICAD protein, O00273
T1 chain: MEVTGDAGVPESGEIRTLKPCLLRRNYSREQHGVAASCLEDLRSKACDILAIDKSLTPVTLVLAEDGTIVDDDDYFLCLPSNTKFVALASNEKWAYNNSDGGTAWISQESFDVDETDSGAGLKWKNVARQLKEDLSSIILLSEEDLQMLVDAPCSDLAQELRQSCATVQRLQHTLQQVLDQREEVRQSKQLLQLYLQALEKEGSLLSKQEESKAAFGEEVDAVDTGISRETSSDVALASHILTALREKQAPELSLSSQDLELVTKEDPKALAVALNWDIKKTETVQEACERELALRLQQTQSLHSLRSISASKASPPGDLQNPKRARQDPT

B1: purified caspase-14 from human cornified cells (heterodimer of large subunit 17 KDa and small subunit 11 KDa) (protein)
chain 1: SLEEEKYDMSGARLALILCVTKAREGSEEDLDALEHMFRQLRFESTMKRDPTAEQFQEELEKFQQAIDSREDPVSCAFVVLMAHGREGFLKGEDGEMVKLENLFEALNNKNCQALRAKPKVYIIQACRGEQRDPGETVGGD
chain 2: KDSPQTIPTYTDALHVYSTVEGYIAYRHDQKGSCFIQTLVDVFTKRKGHILELLTEVTRRMAEAELVQEGKARKTNPEIQSTLRKRLYLQ
  ICAD decomposition by caspase-14 in the presence of a kosmotropic salt (Western blot with anti-ICAD IgG): intact ICAD protein was reduced and the two major decomposition products were increased, thus indicating that purified caspase-14 has a limited decomposing effect on ICAD
  ICAD hydrolysis by caspase-14 in ordinary caspase assay buffer (Western blot with anti-ICAD IgG): showed absolutely no hydrolytic activity of the purified caspase-14 for ICAD

Reference: US20090233319
